Test results from patent US9176064B2, “Bisubstrate fluorescent probes for protein kinase CK2” (University of Tartu, priority 2012, dated 2015).
Where a SMILES comes first, the peptide text is derived from it. [ ]: non-standard residue; d: D form. The star is where a group is joined. X1 = O=C(CCCCCCCn1cnc2c(Br)c(Br)c(Br)c(Br)c21)*

Key:
Assay in all cases: Kinase panel residual activity
Type in all cases: biochemical
Conditions in all cases: compound at 1 micromolar
[1] = molecular target: HER4 (Homo sapiens, UniProt Q15303)
HER4, sequence (Q15303 26-1308, species assumed): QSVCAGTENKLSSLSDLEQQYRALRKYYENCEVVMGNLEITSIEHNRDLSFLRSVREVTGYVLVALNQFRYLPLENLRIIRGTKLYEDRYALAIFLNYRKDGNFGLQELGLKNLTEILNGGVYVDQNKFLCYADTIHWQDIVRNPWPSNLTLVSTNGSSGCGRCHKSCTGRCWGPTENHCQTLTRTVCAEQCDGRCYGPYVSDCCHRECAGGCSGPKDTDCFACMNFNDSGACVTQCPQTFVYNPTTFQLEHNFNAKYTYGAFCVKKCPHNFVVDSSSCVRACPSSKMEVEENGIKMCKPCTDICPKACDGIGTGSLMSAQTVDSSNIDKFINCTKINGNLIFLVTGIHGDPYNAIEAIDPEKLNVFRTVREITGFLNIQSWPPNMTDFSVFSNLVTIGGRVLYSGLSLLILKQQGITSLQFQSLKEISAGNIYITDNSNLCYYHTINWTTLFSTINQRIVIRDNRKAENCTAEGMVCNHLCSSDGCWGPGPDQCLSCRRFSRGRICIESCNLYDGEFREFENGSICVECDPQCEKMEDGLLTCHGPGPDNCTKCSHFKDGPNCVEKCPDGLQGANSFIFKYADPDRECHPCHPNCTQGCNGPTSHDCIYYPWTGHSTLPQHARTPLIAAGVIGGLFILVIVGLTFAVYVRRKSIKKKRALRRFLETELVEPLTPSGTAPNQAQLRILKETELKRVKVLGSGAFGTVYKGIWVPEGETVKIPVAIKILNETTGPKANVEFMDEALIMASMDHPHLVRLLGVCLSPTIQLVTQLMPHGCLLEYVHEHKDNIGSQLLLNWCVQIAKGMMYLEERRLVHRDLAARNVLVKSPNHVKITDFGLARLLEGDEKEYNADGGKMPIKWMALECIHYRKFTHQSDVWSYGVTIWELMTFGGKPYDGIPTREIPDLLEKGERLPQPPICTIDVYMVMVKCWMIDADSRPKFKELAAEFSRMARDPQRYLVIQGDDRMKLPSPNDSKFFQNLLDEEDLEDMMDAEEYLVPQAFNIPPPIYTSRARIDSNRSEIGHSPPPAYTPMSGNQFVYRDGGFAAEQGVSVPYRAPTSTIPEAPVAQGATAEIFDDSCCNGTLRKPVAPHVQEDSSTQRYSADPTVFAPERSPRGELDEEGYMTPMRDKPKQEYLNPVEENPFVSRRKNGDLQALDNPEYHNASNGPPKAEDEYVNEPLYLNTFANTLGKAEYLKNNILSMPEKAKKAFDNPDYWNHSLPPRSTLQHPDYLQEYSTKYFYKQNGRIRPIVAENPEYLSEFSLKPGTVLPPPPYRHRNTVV

[2] = molecular target: T1, ULK1 (Homo sapiens, UniProt O75385)
T1 sequence (O75385 1-1050): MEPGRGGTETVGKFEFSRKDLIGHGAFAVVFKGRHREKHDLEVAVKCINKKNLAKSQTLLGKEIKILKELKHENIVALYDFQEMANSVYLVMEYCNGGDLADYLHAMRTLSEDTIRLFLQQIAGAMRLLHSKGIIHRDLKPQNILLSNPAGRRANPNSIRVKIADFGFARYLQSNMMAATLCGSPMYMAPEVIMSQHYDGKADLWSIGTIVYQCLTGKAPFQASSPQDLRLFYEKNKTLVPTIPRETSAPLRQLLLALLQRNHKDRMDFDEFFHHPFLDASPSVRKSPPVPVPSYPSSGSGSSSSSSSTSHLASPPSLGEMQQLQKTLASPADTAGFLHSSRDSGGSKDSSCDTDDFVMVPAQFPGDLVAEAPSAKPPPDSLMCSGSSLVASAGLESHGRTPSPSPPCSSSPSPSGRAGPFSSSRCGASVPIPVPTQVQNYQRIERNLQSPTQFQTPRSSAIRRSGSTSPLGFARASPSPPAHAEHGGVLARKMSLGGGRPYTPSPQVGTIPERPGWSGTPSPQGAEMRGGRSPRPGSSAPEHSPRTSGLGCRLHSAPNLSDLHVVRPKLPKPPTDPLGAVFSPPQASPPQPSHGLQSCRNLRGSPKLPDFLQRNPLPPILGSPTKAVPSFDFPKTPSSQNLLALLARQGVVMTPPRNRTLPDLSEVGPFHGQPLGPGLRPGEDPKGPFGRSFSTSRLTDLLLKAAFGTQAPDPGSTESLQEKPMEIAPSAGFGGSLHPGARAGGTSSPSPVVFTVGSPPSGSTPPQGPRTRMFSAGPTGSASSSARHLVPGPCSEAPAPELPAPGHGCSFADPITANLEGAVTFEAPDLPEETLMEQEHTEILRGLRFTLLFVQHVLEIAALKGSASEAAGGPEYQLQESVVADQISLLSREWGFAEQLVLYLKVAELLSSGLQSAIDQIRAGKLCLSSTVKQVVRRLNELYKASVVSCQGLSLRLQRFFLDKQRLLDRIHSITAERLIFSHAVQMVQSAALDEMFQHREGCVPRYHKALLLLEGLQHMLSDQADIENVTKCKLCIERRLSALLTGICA

[3] = molecular target: CK1γ2 (Homo sapiens, UniProt P78368)
CK1γ2, sequence (P78368 whole entry): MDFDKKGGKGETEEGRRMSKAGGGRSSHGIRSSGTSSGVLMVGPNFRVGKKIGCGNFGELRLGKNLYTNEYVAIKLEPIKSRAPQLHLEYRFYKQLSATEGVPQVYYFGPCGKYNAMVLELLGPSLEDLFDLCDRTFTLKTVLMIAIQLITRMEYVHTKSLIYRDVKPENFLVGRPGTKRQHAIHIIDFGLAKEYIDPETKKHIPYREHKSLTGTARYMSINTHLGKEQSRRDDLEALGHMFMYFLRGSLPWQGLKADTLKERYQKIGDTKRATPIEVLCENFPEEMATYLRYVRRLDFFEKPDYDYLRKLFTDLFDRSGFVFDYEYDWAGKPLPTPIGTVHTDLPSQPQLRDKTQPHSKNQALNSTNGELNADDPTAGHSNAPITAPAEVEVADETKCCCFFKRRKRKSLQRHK

[4] = molecular target: T2, LKB1 (Homo sapiens, UniProt Q15831)
T2 sequence (Q15831 1-433): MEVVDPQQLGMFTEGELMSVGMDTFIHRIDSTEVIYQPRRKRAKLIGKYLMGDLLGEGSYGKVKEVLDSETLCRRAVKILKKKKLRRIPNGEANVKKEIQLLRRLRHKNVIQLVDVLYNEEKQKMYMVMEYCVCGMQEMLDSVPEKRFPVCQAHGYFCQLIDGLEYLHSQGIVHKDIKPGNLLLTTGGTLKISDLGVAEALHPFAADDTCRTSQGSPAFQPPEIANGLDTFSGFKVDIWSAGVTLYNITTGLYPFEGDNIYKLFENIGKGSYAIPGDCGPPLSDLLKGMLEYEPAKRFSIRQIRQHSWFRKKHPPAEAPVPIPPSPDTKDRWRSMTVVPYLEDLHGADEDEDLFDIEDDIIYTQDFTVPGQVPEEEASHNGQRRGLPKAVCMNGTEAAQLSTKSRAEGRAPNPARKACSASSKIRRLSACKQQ
T2 sequence (Q7RTN6 1-431 partner): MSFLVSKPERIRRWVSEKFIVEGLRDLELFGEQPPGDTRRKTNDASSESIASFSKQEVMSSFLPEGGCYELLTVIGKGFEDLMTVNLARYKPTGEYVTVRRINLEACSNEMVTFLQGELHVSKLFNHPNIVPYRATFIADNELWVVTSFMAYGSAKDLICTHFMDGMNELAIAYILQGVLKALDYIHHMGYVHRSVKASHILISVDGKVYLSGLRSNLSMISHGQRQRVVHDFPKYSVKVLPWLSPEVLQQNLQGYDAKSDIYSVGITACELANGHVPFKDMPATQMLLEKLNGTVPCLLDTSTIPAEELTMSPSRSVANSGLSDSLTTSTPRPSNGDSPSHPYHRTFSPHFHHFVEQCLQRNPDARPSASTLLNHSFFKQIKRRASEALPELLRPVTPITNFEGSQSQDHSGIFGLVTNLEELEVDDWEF
T2 sequence (Q9Y376 1-341 partner): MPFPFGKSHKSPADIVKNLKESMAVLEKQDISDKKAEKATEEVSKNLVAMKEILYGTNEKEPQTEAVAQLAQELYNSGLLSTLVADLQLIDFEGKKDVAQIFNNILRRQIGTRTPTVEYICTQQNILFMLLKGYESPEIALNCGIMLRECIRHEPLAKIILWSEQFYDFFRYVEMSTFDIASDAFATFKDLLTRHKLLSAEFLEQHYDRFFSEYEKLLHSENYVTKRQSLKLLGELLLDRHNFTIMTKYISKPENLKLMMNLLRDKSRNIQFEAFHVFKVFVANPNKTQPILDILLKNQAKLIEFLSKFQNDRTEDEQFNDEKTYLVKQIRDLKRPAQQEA

Structure (SMILES): NCCCC[C@H](NC(=O)[C@H](CC(=O)O)NC(=O)[C@H](CC(=O)O)NC(=O)[C@H](CC(=O)O)NC(=O)[C@H](CC(=O)O)NC(=O)[C@H](CC(=O)O)NC(=O)[C@@H](CC(=O)O)NC(=O)CCCCCCCn1cnc2c(Br)c(Br)c(Br)c(Br)c21)C(=O)O [TBBI-OcA-(D-Asp)-(L-Asp)5-(L-Lys)-OH] (X1-[dD]DDDDDK-OH)
- remaining activity at 1 µM [1]: 103%
- remaining activity at 1 µM [2]: 111%
- remaining activity at 1 µM [3]: 71%
- remaining activity at 1 µM [4]: 96%
